From the supplement of paper PMC12636428

System: Saccharomyces cerevisiae
Experiment: transcriptional activation domain activity (GFP:mCherry ratio, weighted mean of sorted bins, harmonized to initial dataset scale) (arbitrary fluorescence ratio units); higher = stronger transcriptional activation
Details: beta-estradiol 1 µM; induction time 4 h
In short: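 The activation activity of each tile is the read-weighted mean of bin median fluorescence, averaged across its barcodes and mapped linearly onto the scale of the initial dataset. Tiles were fused to an estradiol-inducible synthetic transcription factor, barcoded, and integrated at URA3 in yeast diploids carrying a GFP reporter. Induction used 1 uM beta-estradiol in SC for 4 hours at 30 °C, after which cells were sorted into 8 GFP:mCherry bins, and any tile with fewer than 50 reads was dropped.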

Sequence	transcriptional activation domain activity
GPTIRHEMNLFHVYGRRNPHLRLMISLIYVWMRSWGVKEMSPRTLCLLLIRFF	48600
TDEAESKKAEEVPKTAEEAKPEESKAEETAMADETPKTEEAKPEDVKVEAHKE	19400
SPAPSFRGKSKAEEERERAVLDITDRVSKLLRKTQLQVRVIVECIHCKSPKHL	33300
MPPFFFGLWRIFFFFFFFFCKQLWWTVEFVTYVSCFFFLLNKLVFWLFFFSVC	58500
LRAEGLFQCNYLSYFIELTRYTFLFSMFLILLRSGWFGTSGLFLGMLWHQLVF	37500
MGCICVILARCYCQTLNHFLTVLLLFRSVIFVLFLLFHFFVFVYVLFFFSFII	42000
LIIDVFPPPPPLLSLFFFLSLSLFFSSSFLLFSFASLLSVQLWRGLIVLFVFL	62900
RADADAAASGGHDRRRKRARSDASPSDGHASDASTARRERSSRRSSRSHPRHA	18500
MATDATVNAPASAEATTARRRRSHQKSRLGCRNCKLRRVKCDERRPRCVKCRE	35500
MFQAKLLQHMCDLHTNSGDGELKTLLTEILRMLLVTYIMAHVLTIERDTVHSV	47600
LLLLYGLTWAFNLIACMLTSTNNGNMVSCILTNFNCIIVYTITKIILYLYFVE	43200
VGPLSLDIILNKYDQDTELCAIVHESRRMLVRFYDIVKQNAMVIYSVFLWIPT	50900
SLLVWEFCLRHPEVRDVCDLGQMIFWNNKGAFYFTAFMFILNNTFIQGLHCLV	72600
LARVYIRVFVLRVFRLDDYFIVVAMLCSILACSIFLWVVHLGMGKHFFALPPE	63900
EIKGDLTMTNLVTNFGFSIRWTHNLFEHLSIDWVGRVITIYEDKICLWNHLRF	43500
ADALSARSPKKGKKGKKGKKGKKGKKGKKAGAAAAAAGGAAGANGAKAAGAKA	33300
TLFTGMHKNIIRLLPYRVARILYILLRVVRPVELMPILKFWIPVGNNKANAAV	40700
QESEAVTEKCKNRLDITSEELERVLLQKEGESLKDNAVQQRQGAGGKRAIGKA	23500
GLNLPKISASYLCQYRGSLIGKHFKAIVQLMCFLCYDLLPAPLLNAWLILGRL	70900
FTSIMMTLVSLVQVGLLQFQCRDLLLCGIYIFYCLIKVPYLSLICSATLLVYG	44300
RKDKSKDTKERDVSKRQRGSSRNKGTKAKGTQTKQNEDEEDIVKTRKSKAKDK	15200

Sequence	transcriptional activation domain activity
KSPEKEATKDGDGKPEGTTGTGRGRGRGRGRGGGRGRGRGRGGAVAEKGSYKA	< 6570
GEGERGSDGRQKEGARERGRRRETRKQNQKRGRGGRGGRGRGEGGAKSETQET	17200
TKFYPNKSIETQLMKNKYCDVVHLTRYAAWSNNKKDQDTSSQPLIDEIFGLYS	61500
PVPAKEPAAVEAPEKEVAEEAKLEDGEIADEAKADDSAEEKPADGAAAAAAAP	34700
GEGAGGRDSTKTGAKAAGTGSTASKQPSNSASGGGQGKKKQPSATSAAGRKIA	59000
MLLLSPFFPFLLPSSLSFFFPFPFISTLLSFCLSDTLFNLARSFFIAFLSTLF	42600
MLFTIVPLLCILHHIVLHPIFPSLFYTHIHLCTFFFFFNSVFFFFMFYILVFN	50200
MDSRPAKRPRKTETEDTLDDTDKKPHKKPPLSCAECRRLKLKVATLAASVIVY	69000
LSRAGTGGRAGTAKEAGEAAGGGEQQGEEAGGKEEAGAGAEGEAENGTGGKRN	23400
LSSSPSAQMATNTNVVVVIGDDKRVKEVGDALKTKLGVKGGGKGMRWSGKFVG	26700
YISHSRCLLVFPVLPFFVHYLLFVFSFALLQIIALEILSLVLFVLDLLSLFPH	32800
SEAVDFEVPDDFVVSWTGDLLPHTIIYCDFPPPMSVALFEPQPSDMDFDWFWI	71600
MTSYVHQALVRFIGVTLTYQEYKEKLGRSFYLRNLAENTTMLGFLCWVNILHF	33800
TYTPPVEKPDVEEQSRTRLIGLAALNGASSSEGAFSSSTEFPRQVRVIVPALL	39800
LLFLLAHWHALAKLRMHTDSTLTLLDCATKSLGAALRDFQTKVCPAFNTHELR	51400
ALCSIAGLACFILFCFLRVRWPAMYAPRLNMKKHAPQPLPNSFLGWIVPVLRT	67400
DRFQLKKFGGYQVEFINYDYGVLQDVMLFSLQRHVNCQEVGVKMLWTIIISEW	49000
HFILLHCNQLKNWFNNNQITWVIPKIGKCSHKIQVVSSHVLRAVHLFSQKYYL	58700
SVKHIITLFDDVRQNLAHAGLVALLLAQPHMIVLLTDVWLHMFRYLSAFEITI	52100
VAVTFHTEPHRLVSIIPALISIWDYILGLSPAELSSCTGIHWCIYILTIIFGF	55400
DSKLRATALQVRRGGNCPNTVEVLQQLLLSGGGLDTSSSQTQQVSAADAAAVT	33300

Sequence	transcriptional activation domain activity
MSEPPRKRAKLACVTCNARRVKCDVTDRQPCTNCITGNVHCETRESKRGKHPR	20300
APMGRRTFAVDVDESGNSLAKKVKAARVKGYNYIIVVGERDLERGTAAVECVV	36000
FLLTLLCMEVVLHFDYCVAISKANPDWSKYTPIQLSLLSYFNLHILWLKLLIP	63400
AFLLFLIYLTFFCWVCFATSATWVWTEILSDNQYTESFMPINDVLLAVLSGII	47600
AASWILLGFFIKQLYEEFGWAIFHVVGANPKMKTMYQWYQIMICLLKFDFFFF	48500
NIDPAAIDDKWLSEFINNSDPKSTFKINFNHFNDIGFIYSPPSSRSSIPNKSP	101000
TGAPIRLVAEKAEEQEQDQEGEAPAQDQAQDQEQTQDQGQARAQAGTKAQATK	8780
KRKPRRPVRVDKDPEEEEEEDKEEEEEEEEDPRGKEKKKAKPKRKAKAKAAED	21400
HSSSPEDQERKRSKSRLRDAAAAGAAALGVNEYENRKDRKKRERRRERSERRY	24200
NSTIHNLLEVVLLPDLCGFCCFSMRFVVLLDLIGTLTLPVTCLYLIYLIYVIA	52100
GNEREQREGRREKNGRGEKGKKEERRGRKKRGGGWKRVRRENQARKQGEKGEQ	38100
NPLPPKNNGQAAYKETDGIRIKDRRVLVDVERGRTVKGWKPRRFGGGLGGRGY	47500
RTILLASYIFSNIFVCLIVLNDSLKILWWLGDSYWHKIWFFRIWLWANSISFL	74800
DQIYIYQTPRWLCYECLVAMFTMFTIRLVYFWSLHVLNHLLTYKTFLFFFLSC	47400
ILLPIFGLANRDKNVELMRWALKQCNRTLRRKRAHIWYFSRWLMRPMLPQQRS	66600
MSFFLYYFFYLLQGVIIHIIYTYISLFIPLHSFIIISFIFFFFIIFTLFFLLF	70800
FPCFFISLFPCLLSLSISLFPCLVISLSFFLISLFPFLFLFFPFLSFSLFPYF	68500
DLMMVVFGVLLSSLFFVFVFVWYCYLLLSCFLSFFLSLVVSWCWLGLHIHVYS	43500
IIFCLGRYGLICSLMYTNTVLIFLPPSRMSAQASLTCQTFASILVFCIVLSAI	73300
GFAKDTQDEEYVQHHDNVNPTIPPPDNYILNNENDDGLDNLLGMDYYNIDDLL	101000
PFPLSFPLPFLLSFPLPFLLSFPLISSQPFPLSLLSFPPFPPLSPLPPPSPFF	44600

Sequence	transcriptional activation domain activity
CLRVRGVLILTIERLLNDFADAEYRKYAKAILHCHQPYPNSSDCYCQILRSLV	36900
TEEDAINQSKESNMISINEMLQKQMDFELLGENHLKETQDYLALYKKAYGIEF	113000
FLWYMLFLPLIIPRLSCSWLRLLCVQSGIFGEPIFFRLWICSIIYVVGHCWVL	31200
LTEVTSPRFIASIIACLCNHFAWFFYFIDPHHYHALFTPVEICLFFLVVVWFV	52100
NFLLNVSVVTRWFLFIVPVLGLLWIPGILSVTSFPNATVWSVRLLWWSIWLTV	63900
AQPKTEAPKKVAKPRAKKGEAAEGEVKKGGRGKKRSAEGEEKAEEKAEDKPAE	30600
AGLIVLSGRFNGVVRCLREGFRLRTNIDKCMIFYISCKIALISLFTLLLLVEG	46100
NGPQGQQQQGQRAGQRGQGAGAGEAGQQNGQQGQQAGQRGRGTQAGAAGQQNG	20600
SPFASAGQTGQSPFGGLNKASSPAFAGTGSGSTFGQASTLGGAFGKPAEPAAT	32400
VISTLYHGPQIWVPILVSTGLLAIFAEILPQYFIPRQAISWGYYCWPLIWGCM	36700
EPKAEEPAPRKSDEGQGKDKEQPKEIKEEEQQRGRRPDKGKARVVVQGFAAEE	23200
MLCYAVLWYFVYITFFYINYDMVFLISYLVFLKQLIDRICIIIFIFSFIFFIF	47400
MSEPPRKRAKLACVTCNARRVKCDVTERQPCSNCIAGNALCETRESKRGKHPR	15300
MFCLRSWLPLLFIPTNASPVFILLFFIGTYFLNRPCVYCSLLLLILFSTSCVW	39400
SSNGEEQSINNKNDIDDNSAYRRNNFRNSSNSGSHTFQLSDLDLDVDMRMDSA	41100
WERIREKASILALAYRLGVLLFALHFLFCLSQPPRFARLFWLSFSLLVPSTFF	59000
MWGVLCNWLKHNGMVFSVQCFTFDFLFSFPLSLFFPFFLFSFFLFFLYSFAII	50100
FFSFPSFLLLPPPLSSLPFPSPFLSLLLSLLAFPAAFFPLFSLSSLLNIFPTT	58500
LELNWAIGGGDLKHRMNKLREFLEEGRRVEVLLGPKKRGRKATPEEAQGVVKA	34200
MNLTLFYYTFLLSFFLIYCVVLNLYLRFFPANFVNMPLFISLTFLKCAWIPLL	56200
